Results published in article PMC3199733, “Expression, purification, electron microscopy, N-glycosylation mutagenesis and molecular modeling of human P2X4 and Dictyostelium discoideum P2XA” (Biochimica et Biophysica Acta, 2011).
Where “and” joins values, the source holds several entries; their conditions need not be identical. Equal entries are not always repeated.

Molecular target: the molecule itself
Assay: native gel or EMSA; non-denaturing PFO-PAGE (6% gels, 4% PFO) with anti-His Western blot of Sf9 membranes, untreated (Total) or solubilised in 1% (w/v) detergent (DDM, beta-OG, TX-100, FC-12, C12E8, LDAO) in TBS, 1 h on ice

Row | Protein | stoichiometry N
1 | Dictyostelium discoideum P2XA-(His)6 (receptor, UniProt Q86JM7 1-378, looked up, P2XA receptor of Dictyostelium discoideum, full-length wild type, from a human codon-optimised cDNA; N-glycosylated (insect-cell type); also called DdP2XA; DdP2XA-(His)6; source: Sf9 cells, baculovirus-infected; in detergent-solubilised membranes, and purified (Ni-sepharose, preparative PFO-PAGE)) MGFSFDWDDIFQYSTVKIVRIRDRRLGILHLSFLVGIVAYIVVYSAIIKKGYLFTEVPIGSVRTSLKGPNTFASNLTYCSNQQHNGSTYPFTPLECNYWDEQLALFPVGQDSTFTCTTRVRLSKQEANCNFTDPTCKFVDEPGSAKNIYIADIESFTILIDHTMYASSSGSQFNAVDLHGYILNQDGDEVQIDANGTSIGVSGKPDIMTIGQLLSFGGVSLDQASPVDSNVSIRYDGVVLFVFITYSNTYTYSTSDFKYVYSVQQIANTIYDVPETIILESIHSRLLYKRHGIRVIFIQTGTIGSFHFQTLLLTLVSGLGLLAVATTVVDQLAIRLLPQRKSYSSLKFQVTESMSNPMKKRITTDEGEDVLYTRIEGL | 3
2 | human P2X4-(His)10 (receptor, UniProt Q99571 1-388, looked up, human P2X4 receptor, full-length wild type; N-glycosylated (insect-cell type); also called hP2X4; source: Sf9 cells, baculovirus-infected; in membranes, untreated or detergent-solubilised) MAGCCAALAAFLFEYDTPRIVLIRSRKVGLMNRAVQLLILAYVIGWVFVWEKGYQETDSVVSSVTTKVKGVAVTNTSKLGFRIWDVADYVIPAQEENSLFVMTNVILTMNQTQGLCPEIPDATTVCKSDASCTAGSAGTHSNGVSTGRCVAFNGSVKTCEVAAWCPVEDDTHVPQPAFLKAAENFTLLVKNNIWYPKFNFSKRNILPNITTTYLKSCIYDAKTDPFCPIFRLGKIVENAGHSFQDMAVEGGIMGIQVNWDCNLDRAASLCLPRYSFRRLDTRDVEHNVSPGYNFRFAKYYRDLAGNEQRTLIKAYGIRFDIIVFGKAGKFDIIPTMINIGSGLALLGMATVLCDIIVLYCMKKRLYYREKKYKYVEDYEQGLASELDQ | 2 and 3
